We go through 41 sequences from the nanobody polyreactivity screen of Harvey et al. (2022).

This data set in a line: yeast display, Sf9 membrane polyspecificity reagent, FACS + sequencing; frameworks hold sequencing errors. In short, it runs like this:
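Nanobodies came from a synthetic yeast display library in Saccharomyces cerevisiae BJ5465, induced with galactose for 36–48 hours and stained for 1 hour at 4 °C with 10% biotinylated, detergent-solubilized Sf9 membrane reagent. Cells were enriched on streptavidin microbeads and then FACS-sorted, with low and high (top ~1%) gates set on anti-HA fluorescence for expression and streptavidin fluorescence for reagent binding. Each polyreactivity label reflects the gate a clone came from. Genes were amplified by colony PCR, sequenced by MiSeq 2 × 250 and filtered by CDR length.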
Turning to “QVQLVESGGCLVQAGGSLRLSCAASGFTFPYYAMGWDRQAPGKERELVAAISSGGRTNYADSVKGRFTISRDNAKNTVYLQMNSLKPEDTAVYYCATRSYVFAWEFNYWGQGTQVTVSS”, the “polyreactivity (PSR sort gate)” value is recorded as “high polyreactivity”.
For the sequence “QVQLVESGGCLVQAGGSLRLSCAASGITFYEYAMGWSRQAPGKERELVAGITWSGGSTYYADSVKGRFTISRDNAKNTVYLEMNSLKPEDTAVYYCAATGAFWYPYDYWGQGTQVTVSS”, the “polyreactivity (PSR sort gate)” value is on record as “high polyreactivity”.
As for “QVQLVESGGCLVQAGGSLRLSCAASGLTLDQYALGWYRQAPGKEREFVAAISYSGGNTYYADSVKGRFTISRDNAKYTVYLQMNSLKPEDTAVYYCAAYYFYFYHKVIWYELDYWGQGTQVTVSS”, the “polyreactivity (PSR sort gate)” value is recorded as “low polyreactivity”.
Regarding “QVQLVESGGCLVQAGGSLRLSCAASGPTFSKANAMGWYRQAPGKERELVAAITDGGSTYADSVKGRFTISRDNAKNTVYLQMYSMKPEDTAVYYCAKDTEVFYDSSYDYWGHGTQVTVSS”, the “polyreactivity (PSR sort gate)” value was “low polyreactivity”.
Turning to “QVQLVESGGCLVQAGGSLRLSCAASGRIFESNAMGWYRQAPGKERELVAAISVNGASTSYADSVKGRFTISRDNAKNTVYLQMNSLKPEDTAVYYCAARRGKGYYYWGQGTQVTVSS”, the “polyreactivity (PSR sort gate)” value is on record as “high polyreactivity”.
Consider “QVQLVESGGCLVQAGGSLRLSCAASGRIFLRYAMGWYRQAPGKEREFVADITYSGGSTYYADSVKGRFTISRDNAKNTVYLQMNSLKPEDTAVYYCAAGWVRPWATYKLDYWGQGTQVTVTS”, for which the “polyreactivity (PSR sort gate)” value is given as “high polyreactivity”.
For “QVQLVESGGCLVQAGGSLRLSCAASGRIFSAYAMGWYRQAPGKESELVAAISRSGGLTYYADSVKGRFTISRDNAKNTVYLQMTSLKPEDTAVYYCAARYGSYDSRRWYYYWGQGTQVTVSS”, the “polyreactivity (PSR sort gate)” value is “high polyreactivity”.
As for “QVQLVESGGCLVQAGGSLRLSCAASGRIFTYYGMGWYRQAPGKERELVAAITRSGGSTRYADSVKGRFTISRDNSKNTVYLQMNSLKPEDTAVYYCNAGGYWRYDYWGQGTQVTVSS”, the “polyreactivity (PSR sort gate)” value is on record as “low polyreactivity”.
Take “QVQLVESGGCLVQAGGSLRLSCAASGRIFYDNVMGLYRQAPGKEREFVAAISRRGGSTDYADSVKGRFTISRDNAKNTVYLQMNSLKPEDTAVYYCADDAPGADFDYWGQGTQVTVSS”: the “polyreactivity (PSR sort gate)” value is “low polyreactivity”.
As to “QVQLVESGGCLVQAGGSLRLSCAASGRIFYIYAMGWYRQAPGKERELVAAITNGGSTNYADSVKGRFTISRDNAKNTVYLQMNSLKPEDTAVYYCAASVGTYAYGRTVYRYDYWGQGTQVTVSS”, the “polyreactivity (PSR sort gate)” value is listed as “low polyreactivity”.
Consider “QVQLVESGGCLVQAGGSLRLSCAASGRIFYNYAMGWYRQAPGKERELVAAISGSGGSTYYADSVKGRFTISRDNAKNTVYLQMNSLKPEDTAVYYCSTSGPQYYSRNFDYWGQGTQVTVSS”, for which the “polyreactivity (PSR sort gate)” value was “low polyreactivity”.
The result for “QVQLVESGGCLVQAGGSLRLSCAASGRIIGANAMGWYRQAPGKERELVAAITKNGGRTYYADSVKGRFTISRDNAKNTVYLQMNSLKPEDTAVYYCARGLDVISYGYDYWVQGTQVTVSS” reads “high polyreactivity”.
For the sequence “QVQLVESGGCLVQAGGSLRLSCAASGRSLTDYAMGWYRKAPGKERELVAAISRSGGSTYYADSVKGRFTISRDHAKNTVYLQMNSLKTEDTAVYYCAAGTPKRVGGGYWGQCTQVTVSS”, the “polyreactivity (PSR sort gate)” value is listed as “high polyreactivity”.
In the case of “QVQLVESGGCLVQAGGSLRLSCAASGRTFINNAMGWYRQAPGKERELVAAISWDGGRTYYADSVKGRFTISRDNAKNTVYLQMNSLKPEDTAVYYCNAQPNYAYHGEDDYWGQGTQVTVSS”, the “polyreactivity (PSR sort gate)” value is on record as “high polyreactivity”.
In the case of “QVQLVESGGCLVQAGGSLRLSCAASGRTFRVNAMGWYRQAPGKEWELVAAITWRGGSTYYADSVKGRFTISRDIAKYTVYLQMNSLKPEDTAVYYCAARYSSSSRRQKSDYWGQGTQVTVSS”, the “polyreactivity (PSR sort gate)” value is on record as “high polyreactivity”.
On to “QVQLVESGGCLVQAGGSLRLSCAASGRTFRYYAMGWYRQAPGKERELVAAISSSGDRTYYADSVKGRFTISRDNAKNTVYLQMNSLKPEDTAVYYCAADRGARGDYWGQGTQVTVSS”, for which the “polyreactivity (PSR sort gate)” value was “high polyreactivity”.
For the sequence “QVQLVESGGCLVQAGGSLRLSCAASGRTFSYYAMGWYRQAPGKVRELVAAISRRGGSTTYADSVKGRFTISRDNAKNTVYLQMNSLKPEDTAVYYCNTYPPAHREYASWGQGTQVTVSS”, the “polyreactivity (PSR sort gate)” value is listed as “high polyreactivity”.
Consider “QVQLVESGGCLVQAGGSLRLSCAASGRTFVTYAMRWYRQAPGKERELVAGISRRGGRTYYADSVKGRFTISRDNAKNTVYLQMNSLKPEDTAVYYCAALTYYGSDYWGQGTQVTVSS”, for which the “polyreactivity (PSR sort gate)” value is “high polyreactivity”.
Turning to “QVQLVESGGCLVQAGGSLRLSCAASGRTFYAYAMGWYRQAPGKERELVAAISWRGGDTYYADSVKGRFTISRDNAKNTVYLQMNSLKPEETGVYYCAKYLSRQSGDGEYDYWGQGTQVTVSS”, the “polyreactivity (PSR sort gate)” value is “low polyreactivity”.
Regarding “QVQLVESGGCLVQAGGSLRLSCAASGRTLHYYAMGWYIPAPGKVRELVARINWSGGSTYYADSVKGRFTISRDNAKKTVYLQMNSLKPEDTAVYYCAARKNRAYGYWGQGTQVTVSS”, the “polyreactivity (PSR sort gate)” value is recorded as “high polyreactivity”.
As to “QVQLVESGGCLVQAGGSLRLSCAASGSIFAEYAMGWSRQAPGKERELVASISSRGGRTFYADSVKGRFTISRDNAKNTVYLQMNSLKPEDTAVYYCNALRIYITKKTGYGYWGQGTQVTVSS”, the “polyreactivity (PSR sort gate)” value was “high polyreactivity”.
Take “QVQLVESGGCLVQAGGSLRLSCAASGSIFGTYTMGWYRQAPGKERELVATISNSGGNTYADSVKGRFTISRDNAKNTVNLQMNSLKPEDTAVYYCAVVGGEFSSYGYWGQGTQVTVSS”: the “polyreactivity (PSR sort gate)” value is “low polyreactivity”.
For the sequence “QVQLVESGGCLVQAGGSLRLSCAASGSIFGWYDMGWYRQARGYERELVAAMTSDGSTNYADSVKGRFTISRDNAKNTVYLQKNSLKPEDTAVYYCAQDGWYYYYPYDYWGQGTQVTVSS”, the “polyreactivity (PSR sort gate)” value is given as “low polyreactivity”.
As to “QVQLVESGGCLVQAGGSLRLSCAASGSIFHPYAMGWYRPAPGKERELVAAISKSGGNTYYADSVKGRFTISRDNAKNTVYLQMNSLKPEHTEVYYCAADYYRGRYSDRYDYWGQGTQVTVSS”, the “polyreactivity (PSR sort gate)” value was “low polyreactivity”.
For “QVQLVESGGCLVQAGGSLRLSCAASGSIFNSNAMGWYRPARGKERELVAVISWSDGSTRYADSVKGRFTISRDNAKNTVYLQMHSLKPEDTAVYYCNADLVYYYRQEVDYWGQGTQVTVTS”, the “polyreactivity (PSR sort gate)” value was “low polyreactivity”.
Next, “QVQLVESGGCLVQAGGSLRLSCAASGSIFPVNAMGWYRQAPGKERELVAAITSSGGTTYYADSVKGRFTISRDNAKNTVYLQMNSLKPEDTAVYYCAADVDVSYWRMEYWGQGTQVTVSS”: “high polyreactivity”; “QVQLVESGGCLVQAGGSLRLSCAASGSIFVWNVMGWYRKAPGKERELVAAISWRGGTTYYADSVKGRFTISRDNAKNTVYLQMNSLKPEDTAVYYCAKQKHWSVHGGYNYWGQGTQVTVSS”: “high polyreactivity”.
Consider “QVQLVESGGCLVQAGGSLRLSCAASGSTFGYYAMGWYRQAPGKERELVAAITSNDGSTHYADSVKGRFTISRDNAKNTVYLQMNSLKPEDTEVYYCNARSFVAVISSFVYWGQGTQVTVSS”, for which the “polyreactivity (PSR sort gate)” value is listed as “low polyreactivity”.
As to “QVQLVESGGCLVQAGGSLRLSCAASGSTIGVNAMGWYRQAPGKERELVAAISRGGGRTYYADSVKGRFTISRDNAKNTVYLQMNSLKPEDTAVYYCNTDFGARMGYCGQGTQVTVSS”, the “polyreactivity (PSR sort gate)” value was “high polyreactivity”.
Turning to “QVQLVESGGCLVQAGGSLRLSCAASGSTIPLYAMGWYIQAPGKERELVAAITSGGGNTYYADSVKGRYTISRDNAKNTVYLQKTSLKPDDTAVYYCAAVVGYKSYYSYEYDYWGQGTQVNVSS”, the “polyreactivity (PSR sort gate)” value is recorded as “low polyreactivity”.
In the case of “QVQLVESGGCLVQAGGSLRLSCAASGSTYKLNAMGWYRQAPGKEREMVAAISRGGRTNYADSVKGRFTISRDNAKNTVYFQMNSLNPEDTAVYYCAKDVAGLFHVGALYYYWGQGSQVTVSS”, the “polyreactivity (PSR sort gate)” value is reported as “low polyreactivity”.
For “QVQLVESGGCLVQAGGSLRLSCAASGYIFSGYAMGWYRQAPGKERELVAAISSNGGSTYYADSVKGRFTISRDNAKNTVYLPMNSMKPEDTAVYYCKRGLAARVGRVDYWGQGTHVTVSS”, the “polyreactivity (PSR sort gate)” value is listed as “low polyreactivity”.
As for “QVQLVESGGCLVQAGGSLRLSCAASRSTFSYNAMGWYRHAPRKERELVASSSTSGGSTYYADSVKGRFSISRDNAKNTVYLQINSLTPEDTAVYYCNAPTSDIYSDFDYWGQGTQVTVSS”, the “polyreactivity (PSR sort gate)” value is given as “low polyreactivity”.
With “QVQLVESGGCLVQAGGSLRLSCAASVRTYETNAKGWYIQAPGKEREFVAAISSSGASTYYADSVKGSFTISRYNAKNTVYLQMNSLKTEDTAVYYCAARRREWGQGTQVTVSS”, the “polyreactivity (PSR sort gate)” value is listed as “low polyreactivity”.
For the sequence “QVQLVESGGCLVQAGGSLRLSCAPSGFIFPYYAMGWYRPAPGQERALVAAITSSGGSTYYADSVKGRFTISRDNAKNTVYLQMNSLKPEETAVYYCNKYRRYVDGYEMDYWGQGTQVTVSS”, the “polyreactivity (PSR sort gate)” value is given as “high polyreactivity”.
The result for “QVQLVESGGCLVQAGGSLRLSCASSGRTFSWNAMGCYRQAPGKEREFVAAISNSGGSTYYADSVNGRFTISRDNAKNTVYLQMNSLKPEDTAVYYCAVYRYYGFSLWYDYWGQCTQVTVSS” reads “low polyreactivity”.
Consider “QVQLVESGGCLVQAGGSLRLSCASSGSTFVRYTLGRYRQAPGKEREMVARISRTSSTNYADSVKGRFTISRDNAKNTVYLQMNSLKPEDTSVYYCNAREYYPTKSRFKYWGQGTQVTVSS”, for which the “polyreactivity (PSR sort gate)” value is given as “low polyreactivity”.
With “QVQLVESGGCLVQAGGSLRLSCPPSGSIFIYYAMGWYRHAPGKERELVAAISWSCGDTYYADSVKGRFTISRDNAKNTVYLQMNSLKPEDTAVYYCNADFDPYYPYTAWDSVLTHDEYWGQGTQVTVSS”, the “polyreactivity (PSR sort gate)” value was “low polyreactivity”.
Next, “QVQLVESGGCLVQAGGSLRLSCSASGSIFNYNDMGWYRQAPGKERELVAAIDSSGTSTYYADSVKGRYTISRDNSKNNVYLQMTSLKPEDTAVYYCNADSSLGFGYWGQGTQVTVSS”: “low polyreactivity”; “QVQLVESGGCLVQAGGSLRLSGAASGRIFGRNAMGWYRQAPGKERELVAAINSGVSTYYADSVKGRFTIARDNAKNTVYLQMNSLKPEDTAVYYSATDTDYYLLYLYYYWGQGTQVTVSS”: “low polyreactivity”.
On to “QVQLVESGGCLVQAGGSLRLTCAASGFTLGFNAMGWYRQAPGKERELVAAITIGGTTYYADSVKGRFTLSRDNAKNTVYLQMNSLKPEDTAVYYCAASPVWWYDYWGQGTQVTVSS”, for which the “polyreactivity (PSR sort gate)” value is recorded as “low polyreactivity”.
